Results: article PMC13230913 (Nature Communications, 2026)

B1: chimeric monoclonal antibody H8 (mouse Fab / human Fc) (antibody, V domains shown)
VH: QVQLQQSGAELVRPGTSVKISCKASGYTFINYWLGWVKQRPGHGLEWIGDIYPGGGHTKYNEKFKGKATLTADTSSSTAYMQLSSLTSEDSAVFFCARSGVGSSYYYWGQGTTLTVSS
VL: DIVLTQSPASLAVSLGQRATISCRASKSVSSSGYSFLHWYQQKPGQPPKLLIYLASNLDSGVPARFSGSGSGTDFTLNIHPVEEEDATTYYCQHSWELPTFGGGTKLEIK
B2: Y10F Fab (Fab, V domains shown)
VH: QVQLQQSGAELMKPGASVKISCKAAGYTFSNYWIEWVKQRPGHGLEWIGEILPGNSYTNYNEKFRGKATITADTSSNTAYMQLSSLTSEDSAVYYCASPLSGNYVRFAYWGQGTLVTVST
VL: QIVLSQSPAILSASPGEKVTMTCRATSSVVYMHWYQQKPGSSPKPWIYATSNLASGVPTRFSGSGSGTSYSLTISRVEAEDAATYYCQQWNSNPYTFGGGTKLEIK
B3: chimeric monoclonal antibody Y10F (mouse Fab / human Fc) (antibody, V domains shown)
VH: B2 VH
VL: B2 VL
B4: chimeric monoclonal antibody 77.1 (mouse Fab / human Fc) (antibody, V domains shown)
VH: DVQLQESGPGLVKPSQSLSLTCTVSGYSITSDYAWNWIRQFPGNKLEWMGYISYTLTTGYNPSLKSRISITRDSSKNQFFLQLNSVTTEDTATYYCARSGWLLPYWYFDVWGAGTTVTVSS
VL: DVQITQSPSYLAASPGETITINCRASKSISKYLAWYQEKPGKTNELLIYSGSTLQSGIPSRFRGSGSGTDFTLTISSLEPEDFAMYYCQQHNEYTLTFGGGTKLELK

Legend:
[1] = biological target: T1, stabilized, soluble prefusion measles virus F ectodomain (F_ECTO E170G, E455G, residues 1-495) (Measles virus strain Ichinose-B95a, stabilised); test: SPR
T1 chain 1: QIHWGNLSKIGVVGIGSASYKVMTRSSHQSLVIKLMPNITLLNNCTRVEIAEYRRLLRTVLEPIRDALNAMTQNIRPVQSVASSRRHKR
T1 chain 2: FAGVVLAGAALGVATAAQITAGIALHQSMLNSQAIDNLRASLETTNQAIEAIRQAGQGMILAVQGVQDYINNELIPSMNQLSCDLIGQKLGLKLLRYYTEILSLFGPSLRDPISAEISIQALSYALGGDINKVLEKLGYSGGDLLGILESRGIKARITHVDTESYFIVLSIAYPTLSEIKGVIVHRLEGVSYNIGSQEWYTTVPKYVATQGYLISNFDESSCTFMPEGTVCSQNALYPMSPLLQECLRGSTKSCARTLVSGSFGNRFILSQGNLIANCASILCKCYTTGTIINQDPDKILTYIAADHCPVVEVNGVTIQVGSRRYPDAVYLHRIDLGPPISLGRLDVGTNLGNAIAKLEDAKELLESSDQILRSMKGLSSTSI

[2] = biological target: measles virus B3 F protein with L454W (destabilized prefusion conformation), on cells (Measles virus genotype B3)
[3] = biological target: T1, stabilized, soluble prefusion measles …; test: cell-based or functional assay

Binder	Kd [1]	koff [1]	kon [1]	IC90 of plaque reduction neutralization test (PRNT), virus B3 F-L454W [2]	melting temperature of F_ECTO with Fab by nanoDSF (F_ECTO alone 47.2 °C) [3]
B1	3.17 nM	7.48e-05 s⁻¹	23600 ± 810 M⁻¹ s⁻¹	23 nM	–
B2	–	–	–	–	55.5 °C
B3	99.9 nM	0.00179 s⁻¹	17900 ± 300 M⁻¹ s⁻¹	–	–
B4	1.71 nM	0.000207 s⁻¹	121000 ± 2000 M⁻¹ s⁻¹	–	–
